Results on one molecule are retold here after paper PMC10144703, “Molecular Mechanism of Sirtuin 1 Inhibition by Human Immunodeficiency Virus 1 Tat Protein” (Life, 2023).

The experiment deals with human mini-Sirt1 (aa 183-505-(GGGS)2-641-665) (human) (UniProt Q96EB6).

Where no end group is shown, it is not given here.

Sequence of human mini-Sirt1 (aa 183-505-(GGGS)2-641-665) (human) (Q96EB6 other isoform, or with tags, fused parts or gaps): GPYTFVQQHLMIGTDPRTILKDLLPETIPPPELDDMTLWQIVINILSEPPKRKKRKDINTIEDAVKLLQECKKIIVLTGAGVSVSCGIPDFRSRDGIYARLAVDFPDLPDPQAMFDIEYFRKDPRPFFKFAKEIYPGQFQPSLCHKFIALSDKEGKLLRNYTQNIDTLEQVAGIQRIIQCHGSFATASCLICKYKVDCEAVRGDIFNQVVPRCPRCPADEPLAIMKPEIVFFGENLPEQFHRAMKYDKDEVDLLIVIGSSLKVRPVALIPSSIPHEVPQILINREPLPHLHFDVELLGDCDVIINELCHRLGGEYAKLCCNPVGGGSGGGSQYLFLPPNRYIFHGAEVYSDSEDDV

In turn, SYGRKKRRQ (not fully specified) [Tat-46–54 (non-acetylated)] gave an inhibition of mini-Sirt1 in the FdL assay; IC50 of 131 µM.
